Results reported in US20260209320A1.

Key:
[1] = biological target: T1, Peptide 5 (human); assay: peptide microarray; Sp H; IgG 1 µg/ml
T1 sequence (peptide): QQQPPPPPPPPPPPQ

[2] = biological target: T2, Peptide 41 (mouse); assay: peptide microarray; Sp M; IgG 1 µg/ml
T2 sequence (peptide): PPQPPPQGQPPPPPP

[3] = biological target: T3, Peptide 19 (cyno); assay: peptide microarray; Sp C1; IgG 1 µg/ml
T3 sequence (peptide): PQAQPMLPQPQPPPP

[4] = biological target: T4, Peptide 23 (cyno); assay: peptide microarray; Sp C2; IgG 1 µg/ml
T4 sequence (peptide): QQQQQQQQQQPPPPP

[5] = biological target: T5, Peptide 27 (cyno); assay: peptide microarray; Sp C2; IgG 1 µg/ml
T5 sequence (peptide): PPPPPPPPPPPPQLP

[6] = biological target: T1, Peptide 5 (human); assay: peptide microarray; Sp H; IgG 10 µg/ml
[7] = biological target: T2, Peptide 41 (mouse); assay: peptide microarray; Sp M; IgG 10 µg/ml
[8] = biological target: T3, Peptide 19 (cyno); assay: peptide microarray; Sp C1; IgG 10 µg/ml
[9] = biological target: T4, Peptide 23 (cyno); assay: peptide microarray; Sp C2; IgG 10 µg/ml
[10] = biological target: T5, Peptide 27 (cyno); assay: peptide microarray; Sp C2; IgG 10 µg/ml
[11] = biological target: T6, Peptide 14 (human, cyno); assay: peptide microarray; Sp H; IgG 1 µg/ml
T6 sequence (peptide): PQPQPPPPPPPPPPG

[12] = biological target: T7, Peptide 15 (human, cyno); assay: peptide microarray; Sp H; IgG 1 µg/ml
T7 sequence (peptide): QPQPPPPPPPPPPGP

[13] = biological target: T8, Peptide 6 (human); assay: peptide microarray; Sp H; IgG 1 µg/ml
T8 sequence (peptide): QQPPPPPPPPPPPQL

[14] = biological target: T9, Peptide 20 (cyno); assay: peptide microarray; Sp C1; IgG 1 µg/ml
T9 sequence (peptide): QAQPMLPQPQPPPPP

[15] = biological target: T6, Peptide 14 (human, cyno); assay: peptide microarray; Sp C2; IgG 1 µg/ml
[16] = biological target: T7, Peptide 15 (human, cyno); assay: peptide microarray; Sp C2; IgG 1 µg/ml
[17] = biological target: T6, Peptide 14 (human, cyno); assay: peptide microarray; Sp H; IgG 10 µg/ml
[18] = biological target: T7, Peptide 15 (human, cyno); assay: peptide microarray; Sp H; IgG 10 µg/ml
[19] = biological target: T8, Peptide 6 (human); assay: peptide microarray; Sp H; IgG 10 µg/ml
[20] = biological target: T9, Peptide 20 (cyno); assay: peptide microarray; Sp C1; IgG 10 µg/ml
[21] = biological target: T6, Peptide 14 (human, cyno); assay: peptide microarray; Sp C2; IgG 10 µg/ml
[22] = biological target: T7, Peptide 15 (human, cyno); assay: peptide microarray; Sp C2; IgG 10 µg/ml
[23] = biological target: T9, Peptide 20 (cyno); assay: peptide microarray; Sp C2 (first of two rows printed SEQ ID NO: 73); IgG 1 µg/ml
[24] = biological target: T9, Peptide 20 (cyno); assay: peptide microarray; Sp C2 (first of two rows printed SEQ ID NO: 73); IgG 10 µg/ml
[25] = biological target: T9, Peptide 20 (cyno); assay: peptide microarray; Sp C2 (second of two rows printed SEQ ID NO: 73); IgG 1 µg/ml
[26] = biological target: T9, Peptide 20 (cyno); assay: peptide microarray; Sp C2 (second of two rows printed SEQ ID NO: 73); IgG 10 µg/ml

B1: ATL_0005335 (antibody, V domains shown)
VH: EVQLVESGGGLVKPGGSLRLSCAASGFTFNKAWMNWVRQAPGKGLEWVGRIKSGIDGGTTDYAAPVQGRFTISRDDSKNTVYLQMNSLNTEDTAVYYCIPPPYYYYYGLDVWGQGTTVTVSS
VL: QSALTQPASVSGSPGQSITISCTGTSSDIGSYNLVSWYQQHPGNAPKPLIYEGSKRPSGVSARFSGSKSGNTASLTISGLQPEDEADYYCSSYAGFNTLVFGGGTKVTVL
In the case of B1, the corrected fluorescence intensity [1] is reported as 0, the corrected fluorescence intensity [2] is reported as 256 and the corrected fluorescence intensity [3] is reported as 79. The corrected fluorescence intensity [4] was 0, the corrected fluorescence intensity [5] was 0 and the corrected fluorescence intensity [6] was 593. The corrected fluorescence intensity [7] was 0, the corrected fluorescence intensity [8] was 453 and the corrected fluorescence intensity [9] was 524. It also gave a corrected fluorescence intensity [10] of 604.

B2: ATL_0005331 (antibody, V domains shown)
VH: EVQLVESGGGLVKPGGSLRLSCAASGFTFNKAWMNWVRQAPGKGLEWVGRIKSGIDGGTTDYAAPVQGRFTISRDDSKNTVYLQMNSLNTEDTAVYYCIPPPYYYYYGLDVWGQGTTVTVSS
VL: QSALTQPRSVSGSPGQSITISCTGTSSDVGSYNLVSWFQQHPGKAPKLIIYEVNKRPSGVPDRFSGSKSGNTASLTVSGLQAEDEADYYCGSYAGTNNVFGTGTKLTVL
B2 gave a corrected fluorescence intensity [11] of 84, a corrected fluorescence intensity [12] of 134 and a corrected fluorescence intensity [1] of 0. The corrected fluorescence intensity [13] was 0, the corrected fluorescence intensity [14] was 178 and the corrected fluorescence intensity [15] was 45.5. The corrected fluorescence intensity [16] was 50, the corrected fluorescence intensity [5] was 99.2 and the corrected fluorescence intensity [17] was 412. It also gave a corrected fluorescence intensity [18] of 382, a corrected fluorescence intensity [6] of 382 and a corrected fluorescence intensity [19] of 397. For the same binder, the corrected fluorescence intensity [20] was 504, the corrected fluorescence intensity [21] was 464 and the corrected fluorescence intensity [22] was 478. It also gave a corrected fluorescence intensity [10] of 321, a corrected fluorescence intensity [23] of 0 and a corrected fluorescence intensity [24] of 0. For the same binder, the corrected fluorescence intensity [25] was 51.5 and the corrected fluorescence intensity [26] was 0.
